This is an account of results in the supplement of paper PMC10126150.

In this data set the test system is ATP. The data set can be described thus: switch fluorescence ratio, 500 uM ATP over buffer (Cy3 cluster intensity, sum of 5 cycles each) (fold (ratio)); higher = stronger signal-on switching upon ATP binding; sequences stand for … in TCGTCGGCAGCGTCAGATGTGTATAAGAGACAGTTTTTTTTTTTTTTTTTTTTTTTTT…TC. As to conditions: aptamer strand: ATP DNA aptamer (quencher-CACCTGGGGGAGTATTGCGGAGGAAGG + anchor), 100 nM annealed; ATP concentration: 500 uM. The method in brief:
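The quencher-labelled ATP aptamer, at 100 nM, was annealed to Cy3-labelled switching-strand clusters on a modified Illumina MiSeq flow-cell. The clusters were imaged in selection buffer, then after 15 min with 500 uM ATP at 22 °C, and this buffer/ATP cycle ran five times with NaOH stripping and re-annealing between runs. Per-cluster fluorescence ratios, summed target-cycle over summed buffer-cycle Cy3 intensity, were averaged per switch-domain sequence. Clusters outside 100-1000 RFU were excluded.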

± gives the standard deviation of the averaged measurements.
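Further: ATP exposure 15 min at 22 °C before imaging.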

GCAGGAGGGA: the switch fluorescence ratio was 1.01 ± 0.039.

Turning to AATCAGCCTC, the switch fluorescence ratio worked out at 1.01 ± 0.016.

Turning to ATAGAAAACT, the switch fluorescence ratio stood at 1.4 ± 0.53.

Turning to TACATGTCGG, the switch fluorescence ratio is 1.01 ± 0.0022.

On to GCGATACTGT, for which the switch fluorescence ratio stood at 3.08 ± 0.17.

As to TTATAATTTC, the switch fluorescence ratio was determined as 1.009 ± 0.0023.

In the case of CGGGAGAGTT, the switch fluorescence ratio was found to be 0.996 ± 0.065.

On to CTTGGGTGAA, for which the switch fluorescence ratio was determined as 1.09 ± 0.19.

Consider GGGGGTGAAT, for which the switch fluorescence ratio came out at 1 ± 0.037.

TGAGAGGTCT: the switch fluorescence ratio came out at 1.017 ± 0.0097.

In the case of TATGCGGTCC, the switch fluorescence ratio was determined as 1.02 ± 0.019.

ACGTTAAATG: the switch fluorescence ratio was 1.13 ± 0.053.

Turning to TATAGGAGGT, the switch fluorescence ratio was found to be 0.987 ± 0.062.

Regarding ATGGAGGTAG, the switch fluorescence ratio was 0.995 ± 0.027.

CTGGTGTCGA: the switch fluorescence ratio turned out to be 0.978 ± 0.013.

As for GCGTTATAAG, the switch fluorescence ratio was 1.01 ± 0.049.

For CATAGGGCAG, the switch fluorescence ratio is 1.03 ± 0.012.

As to CGTTATTCGG, the switch fluorescence ratio was found to be 0.965 ± 0.032.

Take GACGGCTCAG: the switch fluorescence ratio was 1 ± 0.015.

Turning to AAAAGGGGGC, the switch fluorescence ratio was 1.01 ± 0.05.

For TTTGTAATTG, the switch fluorescence ratio came out at 1.008 ± 0.01.

CATGATGCTG: the switch fluorescence ratio amounted to 1.01 ± 0.033.

As for GGGAGGGAGC, the switch fluorescence ratio was determined as 1.02 ± 0.06.

Regarding GGGGGTTCAA, the switch fluorescence ratio came to 0.983 ± 0.025.

Turning to TTGAATCAAG, the switch fluorescence ratio amounted to 1.01 ± 0.041.

As to GTGCTTGTGT, the switch fluorescence ratio is 1.01 ± 0.04.

On to TTTCGGGAAT, for which the switch fluorescence ratio was 1.08 ± 0.11.

With GGAATTGGGT, the switch fluorescence ratio worked out at 0.99 ± 0.044.

For the sequence TCCGACTGAT, the switch fluorescence ratio was 1.72 ± 0.05.

As to TAATTAATAG, the switch fluorescence ratio is 0.9971 ± 0.0031.

As to CTATGTGTCA, the switch fluorescence ratio was 0.977 ± 0.05.

Turning to CTTGACAGA, the switch fluorescence ratio was found to be 1.03 ± 0.024.

Regarding GGGGGCGTTC, the switch fluorescence ratio was found to be 1.015 ± 0.005.

Consider ATAAGGGCCA, for which the switch fluorescence ratio amounted to 1.01 ± 0.036.

TTTCTCTTAG: the switch fluorescence ratio worked out at 0.9889 ± 0.0072.

Take ACTGAGGCCG: the switch fluorescence ratio was 1.04 ± 0.16.

As to AGGGTCCACG, the switch fluorescence ratio came out at 0.947 ± 0.015.

In the case of TTCGGTTAGA, the switch fluorescence ratio stood at 1.02 ± 0.015.

As for TTAGAGGGAC, the switch fluorescence ratio is 0.971 ± 0.014.

As for ATTATATGTG, the switch fluorescence ratio turned out to be 1.02 ± 0.027.

For the sequence CCGTGAATAT, the switch fluorescence ratio turned out to be 2.21 ± 0.083.

In the case of ATTTAGTTTA, the switch fluorescence ratio worked out at 0.996 ± 0.017.

On to GTATGAAGGG, for which the switch fluorescence ratio amounted to 0.9756 ± 0.0049.

GTGGACCAGT: the switch fluorescence ratio came out at 0.972 ± 0.024.

Turning to CTCTGTGTTA, the switch fluorescence ratio amounted to 1.06 ± 0.015.

As to ACGATCTCCC, the switch fluorescence ratio was 1.31 ± 0.098.

Consider AGGGTCTGCG, for which the switch fluorescence ratio came out at 0.981 ± 0.025.

On to GGATGGGGCG, for which the switch fluorescence ratio turned out to be 0.995 ± 0.027.

TTTAGGGA: the switch fluorescence ratio was found to be 0.973 ± 0.033.

For GCTGAAAAGA, the switch fluorescence ratio turned out to be 0.97 ± 0.032.

As to TTAGCGTAGG, the switch fluorescence ratio stood at 1.02 ± 0.0011.

Turning to AAGACTCACG, the switch fluorescence ratio is 1.05 ± 0.052.

Consider TCATTAAGAT, for which the switch fluorescence ratio was 0.994 ± 0.053.

As for TTTTAGGTAA, the switch fluorescence ratio came out at 0.9745 ± 0.0034.

For the sequence TCGTGGGGGC, the switch fluorescence ratio amounted to 1.07 ± 0.14.

Take GTGTCAATTA: the switch fluorescence ratio is 1.01 ± 0.021.

AATTTACATG: the switch fluorescence ratio is 1.02 ± 0.024.

In the case of GTTTATTGGC, the switch fluorescence ratio turned out to be 0.995 ± 0.019.

Take AAAGCAATTG: the switch fluorescence ratio came to 1.077 ± 0.0065.

Consider TAGGGTTTGG, for which the switch fluorescence ratio came out at 0.992 ± 0.014.

On to TTTAAGAGCT, for which the switch fluorescence ratio was determined as 0.997 ± 0.015.

In the case of AGGTGGAAGG, the switch fluorescence ratio is 0.984 ± 0.021.

On to ACGTCCAAAA, for which the switch fluorescence ratio is 1.04 ± 0.026.

As for GCACCTATGG, the switch fluorescence ratio was 0.979 ± 0.025.

On to GCTAGATCGT, for which the switch fluorescence ratio came out at 0.969 ± 0.033.

Turning to GTTCGACCCG, the switch fluorescence ratio was 1.02 ± 0.032.

Consider GGGGCAGGGG, for which the switch fluorescence ratio stood at 1.05 ± 0.062.
